Reference: patent US20180369403A1 (University of Texas, published 2018)
Values joined by “and” are separate entries in the source; they are usually repeats but may differ in a detail not shown here. Equal entries are not always repeated.

T1: LGR5 (UniProt O75473 22-561, limits assumed)
T1 sequence (looked up): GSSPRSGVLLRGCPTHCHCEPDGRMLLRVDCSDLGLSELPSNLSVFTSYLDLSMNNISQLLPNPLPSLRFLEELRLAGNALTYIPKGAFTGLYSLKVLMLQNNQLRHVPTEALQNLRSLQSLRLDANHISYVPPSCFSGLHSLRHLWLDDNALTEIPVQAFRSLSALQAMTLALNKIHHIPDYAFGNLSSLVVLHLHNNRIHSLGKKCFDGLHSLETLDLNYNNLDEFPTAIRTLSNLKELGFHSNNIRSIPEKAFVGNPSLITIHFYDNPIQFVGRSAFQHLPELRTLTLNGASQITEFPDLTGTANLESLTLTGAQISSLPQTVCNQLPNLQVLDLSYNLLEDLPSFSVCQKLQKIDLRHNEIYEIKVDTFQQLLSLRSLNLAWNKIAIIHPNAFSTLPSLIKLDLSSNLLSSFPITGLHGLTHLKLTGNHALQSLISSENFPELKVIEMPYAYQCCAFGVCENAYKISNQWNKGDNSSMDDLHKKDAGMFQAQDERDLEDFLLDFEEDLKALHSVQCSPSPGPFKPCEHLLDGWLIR

T2: LGR6 (UniProt Q9HBX8 25-567, limits assumed)
T2 sequence (looked up): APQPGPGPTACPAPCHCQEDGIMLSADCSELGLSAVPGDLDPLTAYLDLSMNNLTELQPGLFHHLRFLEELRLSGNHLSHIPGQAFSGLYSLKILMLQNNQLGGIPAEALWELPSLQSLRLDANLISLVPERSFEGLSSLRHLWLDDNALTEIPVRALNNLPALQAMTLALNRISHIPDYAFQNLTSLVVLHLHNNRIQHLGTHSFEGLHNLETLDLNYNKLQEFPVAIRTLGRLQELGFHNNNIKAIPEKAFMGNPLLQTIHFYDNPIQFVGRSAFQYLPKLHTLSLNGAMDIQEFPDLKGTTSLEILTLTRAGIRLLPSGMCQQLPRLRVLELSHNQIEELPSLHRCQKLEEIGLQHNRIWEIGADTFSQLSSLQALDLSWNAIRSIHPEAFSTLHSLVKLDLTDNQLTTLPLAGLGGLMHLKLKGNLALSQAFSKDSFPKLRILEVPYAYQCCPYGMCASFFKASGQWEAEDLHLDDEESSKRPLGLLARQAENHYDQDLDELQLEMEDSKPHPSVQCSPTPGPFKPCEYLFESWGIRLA


Tests used:
[1] = molecular target: T3, human LGR4 (leucine-rich repeat-containing G-protein coupled receptor 4) (human, UniProt Q9BXB1 25-951); assay: fluorescence cell binding, HEK293 cells overexpressing LGR4, Alexa-488 anti-rat IgG
T3 construct: whole, on cells; also called GPR48; HEK293-LGR4-human

[2] = molecular target: T3, human LGR4 (leucine-rich …); assay: cell-based or functional assay
LGR5 = molecular target: T1, LGR5; assay: specificity cross check analysis
LGR6 = molecular target: T2, LGR6; assay: specificity cross check analysis
mouse LGR4 = molecular target: T4, mouse LGR4 (mouse, UniProt A2ARI4 25-951); assay: Western blot, lane HEK293-LGR4-mouse
T4 construct: whole, on cells; also called native mouse receptor; HEK293-LGR4-mouse

[3] = molecular target: T3, human LGR4 (leucine-rich …); assay: binding to live HEK293 cells stably expressing human LGR4

Kd [1] [µg/mL]	binding result (LGR5)	binding result (LGR6)	binding result (mouse LGR4)	Kd [3]	Binder	IC50, cell viability of IGROV1 cells (CelltiterGlo, 4 days) [2] [µg/mL]	IC50, cell viability of OVCAR3 cells (CelltiterGlo, 4 days) [2] [µg/mL]	IC50, cell viability of SKOV3 cells (CelltiterGlo, 4 days) [2] [µg/mL]
0.1					anti-LGR4 monoclonal antibody 3G6 (antibody, V domains shown, Rat monoclonal antibody; also called clone 3G6) VH: QVQLQQSGAELVKPGSSVKISCKASGYTFTSNFMHWIKQQPGNGLEWIGWIYPGDGDTDYNQKFIGKATLTADKSSSTAYMQLSSLTSEDSAVYFCSRSNSGYNWFAYWGQGTLVTVSS VL: DIVLTQSPPVLSASVGDRVTLSCKASQNINKNLDWYQQKHGEAPKLLIYYTNNLQTGIPSRFSGSGSGTDYTLTIRSLQPEDVATYYCYQYRTGWTFGGGTKLELKR			
					8D2-MC-VC-PAB-MMAE (antibody, V domains shown, MMAE (auristatin) attached through an MC-VC-PAB (maleimidocaproyl-valine-citrulline-p-aminobenzyloxycarbonyl) linker; sites and chain of attachment not stated) VH: QVQLQQSGAELVKPGASVNLSCKTSGYTFSTSYMSWFKQIPGQTIEWVGLIYVGAGGPTYNQKFKGKASLTVDTSSSTAYMDLSSLTAEDSAVYFCARVRGYAMDAWGQGTSVTVSS VL: DIVLTQSPATLSVTPGESVSLSCRASQDISTSIHWYQQKSNESPRLLIKYASQSISGIPSRFSGGGSGTDFTLTINRVESEDFSVYYCQQSYSLPVTFGSGTKLELKR	~0.3	~0.03	2.4
0.5	no binding	no binding	binds	~0.1 µg/mL and ~0.7 nM	anti-LGR4 monoclonal antibody 8D2 (antibody, V domains shown, also called mAb 8D2; LGR4-mAb-8D2) VH: QVQLQQSGAELVKPGASVNLSCKTSGYTFSTSYMSWFKQIPGQTIEWVGLIYVGAGGPTYNQKFKGKASLTVDTSSSTAYMDLSSLTAEDSAVYFCARVRGYAMDAWGQGTSVTVSS VL: DIVLTQSPATLSVTPGESVSLSCRASQDISTSIHWYQQKSNESPRLLIKYASQSISGIPSRFSGGGSGTDFTLTINRVESEDFSVYYCQQSYSLPVTFGSGTKLELKR			
